# Test system: Escherichia coli TOP10
# Assay: shrunken log2 fold change of peptide-encoding DNA abundance (4.5 h post-induction vs induction); higher = less antimicrobial activity (less host growth inhibition)
# Conditions: time post-induction: 4.5 h; library: site-saturation at positions 5, 18, 19, 20
# 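Further: peptides expressed intracellularly from a pBAD plasmid library in pooled LB shake-flask culture, induced with 0.3% L-arabinose, DNA abundance read by NGS, three biological replicates, DESeq2 with apeglm shrinkage.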
row,Sequence,shrunken log2 fold change
1,RRIRIRPPRLPRPRPRPPLEPRP,-0.272
2,RRIRLRPPRLPRPRPRPKPFPRP,2.21
3,RRIRVRPPRLPRPRPRPHFLPRP,0.187
4,RRIRHRPPRLPRPRPRPADQPRP,0.0188
5,RRIRMRPPRLPRPRPRPHGVPRP,0.023
6,RRIRYRPPRLPRPRPRPTNAPRP,-0.24
7,RRIRYRPPRLPRPRPRPKFWPRP,0.449
8,RRIRCRPPRLPRPRPRPGATPRP,0.512
9,RRIRWRPPRLPRPRPRPTGEPRP,0.306
10,RRIRSRPPRLPRPRPRPLENPRP,-0.0294
11,RRIRPRPPRLPRPRPRPAVIPRP,-0.007
12,RRIRDRPPRLPRPRPRPEMRPRP,1.29
13,RRIRERPPRLPRPRPRPLILPRP,-0.574
14,RRIRQRPPRLPRPRPRPYFPPRP,-0.283
15,RRIRKRPPRLPRPRPRPNACPRP,0.0357
16,RRIRCRPPRLPRPRPRPYASPRP,-0.0843
17,RRIRIRPPRLPRPRPRPVITPRP,-0.553
18,RRIRFRPPRLPRPRPRPRSIPRP,-0.256
19,RRIRSRPPRLPRPRPRPLEYPRP,-0.277
20,RRIRYRPPRLPRPRPRPTFQPRP,-0.0033
21,RRIRCRPPRLPRPRPRPHNFPRP,-1.01
22,RRIRTRPPRLPRPRPRPKQPPRP,0.0517
23,RRIRTRPPRLPRPRPRPDHMPRP,-0.109
24,RRIRCRPPRLPRPRPRPGLWPRP,0.569
25,RRIRRRPPRLPRPRPRPADCPRP,0.0869

row,Sequence,shrunken log2 fold change
1,RRIRMRPPRLPRPRPRPHPNPRP,0.299
2,RRIRSRPPRLPRPRPRPFKFPRP,-0.438
3,RRIRMRPPRLPRPRPRPYPWPRP,-0.274
4,RRIRKRPPRLPRPRPRPTLKPRP,0.601
5,RRIRVRPPRLPRPRPRPQDIPRP,-0.328
6,RRIRPRPPRLPRPRPRPEHEPRP,0.0185
7,RRIRERPPRLPRPRPRPIRYPRP,-0.00369
8,RRIRQRPPRLPRPRPRPSVWPRP,0.128
9,RRIRSRPPRLPRPRPRPLVKPRP,-0.111
10,RRIRHRPPRLPRPRPRPFYWPRP,-0.0655
11,RRIRSRPPRLPRPRPRPSAQPRP,0.198
12,RRIRTRPPRLPRPRPRPSKDPRP,-0.61
13,RRIRERPPRLPRPRPRPLACPRP,-0.269
14,RRIRHRPPRLPRPRPRPDNKPRP,-0.27
15,RRIRVRPPRLPRPRPRPTHWPRP,0.509
16,RRIRARPPRLPRPRPRPDPDPRP,1.3
17,RRIRDRPPRLPRPRPRPHHHPRP,-0.505
18,RRIRARPPRLPRPRPRPTLRPRP,0.148
19,RRIRCRPPRLPRPRPRPANDPRP,-0.799
20,RRIRERPPRLPRPRPRPRDKPRP,-0.187
21,RRIRARPPRLPRPRPRPKDMPRP,0.263
22,RRIRMRPPRLPRPRPRPCFFPRP,0.16
23,RRIRWRPPRLPRPRPRPPSLPRP,0.115
24,RRIRMRPPRLPRPRPRPILNPRP,-0.248
25,RRIRMRPPRLPRPRPRPLMWPRP,0.268

row,Sequence,shrunken log2 fold change
1,RRIRRRPPRLPRPRPRPVQMPRP,0.158
2,RRIRFRPPRLPRPRPRPKTVPRP,-0.117
3,RRIRHRPPRLPRPRPRPRIQPRP,-0.267
4,RRIRFRPPRLPRPRPRPPYFPRP,0.0621
5,RRIRERPPRLPRPRPRPRWWPRP,0.0167
6,RRIRPRPPRLPRPRPRPNTAPRP,-0.23
7,RRIRKRPPRLPRPRPRPNAKPRP,-0.0195
8,RRIRSRPPRLPRPRPRPMPDPRP,0.235
9,RRIRIRPPRLPRPRPRPVGNPRP,0.00174
10,RRIRVRPPRLPRPRPRPTNEPRP,-0.0806
11,RRIRKRPPRLPRPRPRPICGPRP,0.0699
12,RRIRARPPRLPRPRPRPAYIPRP,-0.148
13,RRIRHRPPRLPRPRPRPFYIPRP,-1.15
14,RRIRRRPPRLPRPRPRPWRHPRP,0.0972
15,RRIRMRPPRLPRPRPRPASCPRP,0.629
16,RRIRGRPPRLPRPRPRPNHEPRP,0.0434
17,RRIRDRPPRLPRPRPRPFNMPRP,-0.186
18,RRIRMRPPRLPRPRPRPESTPRP,2.28
19,RRIRDRPPRLPRPRPRPWSCPRP,-0.188
20,RRIRSRPPRLPRPRPRPVHVPRP,-0.0394
21,RRIRMRPPRLPRPRPRPRREPRP,1.27
22,RRIRDRPPRLPRPRPRPLPEPRP,0.0958
23,RRIRGRPPRLPRPRPRPHCNPRP,0.427
24,RRIRERPPRLPRPRPRPQLGPRP,0.329
25,RRIRDRPPRLPRPRPRPEALPRP,1.21

row,Sequence,shrunken log2 fold change
1,RRIRHRPPRLPRPRPRPTAGPRP,-0.0268
2,RRIRCRPPRLPRPRPRPQQSPRP,-0.0144
3,RRIRPRPPRLPRPRPRPKNRPRP,0.00526
4,RRIRDRPPRLPRPRPRPTTRPRP,0.542
5,RRIRWRPPRLPRPRPRPIWAPRP,0.00581
6,RRIRKRPPRLPRPRPRPRVWPRP,0.809
7,RRIRGRPPRLPRPRPRPMRKPRP,1.37
8,RRIRERPPRLPRPRPRPSFVPRP,-0.588
9,RRIRKRPPRLPRPRPRPCEVPRP,0.0441
10,RRIRMRPPRLPRPRPRPSVLPRP,0.0464
11,RRIRARPPRLPRPRPRPHETPRP,0.062
12,RRIRVRPPRLPRPRPRPYWVPRP,-0.0928
13,RRIRIRPPRLPRPRPRPMNLPRP,-0.152
14,RRIRERPPRLPRPRPRPHTRPRP,-0.0821
15,RRIRERPPRLPRPRPRPNLMPRP,-0.665
16,RRIRFRPPRLPRPRPRPEAEPRP,0.684
17,RRIRCRPPRLPRPRPRPVCIPRP,-0.499
18,RRIRFRPPRLPRPRPRPAETPRP,0.0238
19,RRIRRRPPRLPRPRPRPEPLPRP,0.137
20,RRIRMRPPRLPRPRPRPKSIPRP,0.301
21,RRIRERPPRLPRPRPRPSDHPRP,-0.133
22,RRIRARPPRLPRPRPRPSQGPRP,-0.168
23,RRIRKRPPRLPRPRPRPKQGPRP,0.121
24,RRIRVRPPRLPRPRPRPNDHPRP,-0.302
25,RRIRTRPPRLPRPRPRPEPNPRP,-0.0182

row,Sequence,shrunken log2 fold change
1,RRIRCRPPRLPRPRPRPAAMPRP,0.281
2,RRIRPRPPRLPRPRPRPSFRPRP,-0.142
3,RRIRFRPPRLPRPRPRPPHTPRP,0.126
4,RRIRVRPPRLPRPRPRPESLPRP,-0.175
5,RRIRFRPPRLPRPRPRPTFKPRP,0.0617
6,RRIRCRPPRLPRPRPRPNEQPRP,0.256
7,RRIRTRPPRLPRPRPRPWIMPRP,-0.621
8,RRIRLRPPRLPRPRPRPNNKPRP,-0.357
9,RRIRRRPPRLPRPRPRPYGWPRP,0.0825
10,RRIRFRPPRLPRPRPRPFMHPRP,-0.147
11,RRIRWRPPRLPRPRPRPRAFPRP,0.57
12,RRIRMRPPRLPRPRPRPFFQPRP,-0.134
13,RRIRWRPPRLPRPRPRPQLIPRP,-0.153
14,RRIRERPPRLPRPRPRPFIWPRP,0.0296
15,RRIRQRPPRLPRPRPRPGRCPRP,0.321
16,RRIRDRPPRLPRPRPRPTTCPRP,0.463
17,RRIRTRPPRLPRPRPRPDPKPRP,0.113
18,RRIRVRPPRLPRPRPRPGWQPRP,0.545
19,RRIRSRPPRLPRPRPRPWTPPRP,-0.154
20,RRIRSRPPRLPRPRPRPMYMPRP,-0.387
21,RRIRERPPRLPRPRPRPKVPPRP,-0.015
22,RRIRSRPPRLPRPRPRPQGMPRP,-0.124
23,RRIRFRPPRLPRPRPRPKTLPRP,-0.145
24,RRIRPRPPRLPRPRPRPVDWPRP,0.656
25,RRIRNRPPRLPRPRPRPKDFPRP,-0.000911

row,Sequence,shrunken log2 fold change
1,RRIRPRPPRLPRPRPRPVLDPRP,-0.304
2,RRIRKRPPRLPRPRPRPYMYPRP,-0.445
3,RRIRMRPPRLPRPRPRPVIDPRP,0.0403
4,RRIRRRPPRLPRPRPRPYTLPRP,-0.34
5,RRIRHRPPRLPRPRPRPLQWPRP,-0.127
6,RRIRERPPRLPRPRPRPTIHPRP,-0.324
7,RRIRSRPPRLPRPRPRPCIHPRP,-1.37
8,RRIRTRPPRLPRPRPRPSRKPRP,0.0182
9,RRIRGRPPRLPRPRPRPICNPRP,0.645
10,RRIRYRPPRLPRPRPRPYNYPRP,-1.3
11,RRIRGRPPRLPRPRPRPITVPRP,-0.0412
12,RRIRQRPPRLPRPRPRPGDYPRP,-0.17
13,RRIRCRPPRLPRPRPRPWFMPRP,-0.776
14,RRIRCRPPRLPRPRPRPQWSPRP,-0.169
15,RRIRHRPPRLPRPRPRPLGDPRP,0.146
16,RRIRGRPPRLPRPRPRPSEMPRP,0.4
17,RRIRCRPPRLPRPRPRPETNPRP,0.222
18,RRIRERPPRLPRPRPRPPGHPRP,-0.0333
19,RRIRHRPPRLPRPRPRPCLGPRP,0.0158
20,RRIRTRPPRLPRPRPRPWGAPRP,0.211
21,RRIRCRPPRLPRPRPRPLNRPRP,-0.413
22,RRIRDRPPRLPRPRPRPTKFPRP,0.138
23,RRIRLRPPRLPRPRPRPGHGPRP,-0.00133
24,RRIRFRPPRLPRPRPRPEGAPRP,1.05
25,RRIRQRPPRLPRPRPRPRDMPRP,-0.046

# From the supplement of paper PMC9112550, “Optimization of the antimicrobial peptide Bac7 by deep mutational scanning” (BMC Biology, 2022)
